We go through 6 molecules from patent US20230295313A1.

Experiment [1] concerns the target biotin-labeled human IL1RAP (human) (UniProt Q9NPH3). Put plainly: competition ELISA; competitor: capture mAb067 coated; biotin-hIL1RAP.
Experiment [2] has the same target. Put plainly: competition ELISA; competitor: capture mAb063 coated; biotin-hIL1RAP.
Experiment [3] shares this target. Put plainly: competition ELISA; competitor: capture mAb048 coated; biotin-hIL1RAP.
Experiment [4] has the same target. In words: competition ELISA; competitor: capture mAb117 coated; biotin-hIL1RAP.
For experiment [5] the target is unchanged. Put plainly: competition ELISA; competitor: capture mAb016 coated; biotin-hIL1RAP.
For experiment [6] the target is unchanged. Put plainly: competition ELISA; competitor: capture mAb001 coated; biotin-hIL1RAP.

Chain of biotin-labeled human IL1RAP (human) (Q9NPH3 21-367 limits assumed): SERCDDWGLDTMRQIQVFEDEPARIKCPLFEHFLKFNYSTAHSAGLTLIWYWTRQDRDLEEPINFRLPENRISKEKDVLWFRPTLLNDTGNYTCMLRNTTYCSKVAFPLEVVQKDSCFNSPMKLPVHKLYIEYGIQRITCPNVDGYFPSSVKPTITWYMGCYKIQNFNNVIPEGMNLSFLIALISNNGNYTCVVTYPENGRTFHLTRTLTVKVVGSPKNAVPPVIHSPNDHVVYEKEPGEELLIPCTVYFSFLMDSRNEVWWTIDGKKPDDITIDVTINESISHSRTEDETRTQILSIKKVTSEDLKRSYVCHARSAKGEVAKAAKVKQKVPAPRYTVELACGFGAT

B1: murine mAb117 (antibody, V domains shown)
VH: QAYLQQSGAELVRPGASVKMSCKASGYTFTSYNMHWVKQSPRQGLEWVGVFYLGNGDTSYNEKFKGKATLTVDKSSSTAYMQLSSLTSEDSAVYFCARPGGYANWYFDVWGTGTTVTVSS
VL: DIVMTQSQKFMSTSVGDWVSVTCKASQNVGTEVSWYQQKPGQSPNTLIYSASYRHSGVPDRFTGSGSGTEFTLTITNVQSEDLADYFCQQYNSFPLTFGAGTKLDLK
Regarding B1, the % inhibition in experiment [1] came out at 86%; in experiment [2], 87%; in experiment [3], 83%; in experiment [4] it was 95%; in experiment [5], 98%; in experiment [6], 93%.

B2: mAb063 (antibody, V domains shown)
VH: EVQLQQSGPELVKPGASVKISCKASGYTFTDYYMNWVKQSHGKSLEWIGHINPNSGSTTYTEKFKDKATLTVDKSSSTAYMELRSLTSDDSAVYYCVRRIGKNWHCDVWGTGTTVTVSS
VL: DIVLTQSPASLAVSLGQRATISCRASESVNFHGTHLMHWYQQKPGQAPKLLIYAASNLDSGVPARFSGSGSETDFTLNIHPVEEEDAATYFCQQSIEDPFTFGSGTYLEIK
Regarding B2, the % inhibition in experiment [1] was determined as 87%; in experiment [2] it was 96%; in experiment [3] it was 82%; in experiment [4] it was 92%; in experiment [5], 97%; in experiment [6], 94%.

B3: murine mAb067 (antibody, V domains shown)
VH: QVKLHQSGAELAKPGASVKMSCKASGYTFNSYWIHWVKQRPGQGLEWIGYNNPTSGYSEYNQKFTDKATLSADKSSSTAYMQLSSLTSEDSAVYYCVREYGDLFAYWGQGTLVTVSA
VL: NIVMTQSPKSMSMSVGERVTLSCKASENVGYSVSWFQQKPDQSPKLLIYGASNRYTGVPDRFTGSGSATDFTLTISTVQAEDLADYHCGQIYIYPYTFGGGTKLEIK
As for B3, the % inhibition in experiment [1] amounted to 87%; in experiment [2], 72%; in experiment [3] it was 83%; in experiment [4], 91%; in experiment [5], 97%; in experiment [6], 94%.

B4: murine mAb001 (antibody, V domains shown)
VH: QVQLQQPGAELVRPGSSVKLSCKASGYTFTSYWMDWVKQRPGQGLEWIGNIYPSDSKTHYNQKFKDKATLTVDKSSSTAYMQLSSLTSEDSAVYYCARDYYGSIGMDYWGQGTSVTVSS
VL: DIQMTQSPSSLSASLGERVSLTCRASQEISGYLSWLQQKPDGTIKRLIYAASTLDSGVPKRFSGSRSGSDYSLTISSLESEDFADYYCLQYASYPWTFGGGTKLEIK
Regarding B4, the % inhibition came out at 76% in experiment [1]; 75% in experiment [2]; 68% in experiment [3]; 82% in experiment [4]; 90% in experiment [5]; 93% in experiment [6].

B5: murine mAb016 (antibody, V domains shown)
VH: QVQLQQPGAELVRPGSSVKLSCKASGYTFTSYWMDWVKQRPGQGLEWIGNIYPSDSATHYNQKFKDKATLTIDKSSSTAYMQLSSLTSEDSAVYYCARDYYGSIGMDSWGQGTSVTVSS
VL: DIQMTQSPSSLSASLGERVSLTCRASQEISDYLSWLQQKPDGTIKRLIYAASTLDSGVPKRFSGSRSGSDYSLTISSLESEDFADYYCLQYASFPWTFGGGTKLEIK
In the case of B5, the % inhibition in experiment [1] is 76%; in experiment [2], 80%; in experiment [3], 78%; in experiment [4], 89%; in experiment [5], 94%; in experiment [6], 95%.

B6: murine mAb048 (antibody, V domains shown)
VH: QVQLQQPGADLVKPGASVKLSCKAYGYTFFSYWMHWVRQRPGQGLEWIGMIHPNSGTTNNNEKFKSKATLTVDKSFSTAYMQLSSLTSEDSAVYYCARGYSNYDFDYWGQGTILTVSS
VL: DIKMTQFPSSMYASLGERVTITCKASQDINTYLIWIQQKPGKSPKTLIYRANRLADGVPSRFSGSGSGQDSSLTISSLEHEDMGIYYCLQYDEFPYTFGGGTKLEIK
Regarding B6, the % inhibition in experiment [1] is 90%; in experiment [2] it was 86%; in experiment [3] it was 84%; in experiment [4], 94%; in experiment [5], 98%; in experiment [6], 95%.
